Measurements from patent publication US10556936B2, “Immunogenic proteins and fragments thereof from allergenic mites” (ALK-ABELLÓ A/S, priority 2016, dated 2020).
Marks after values point to notes of the source that are not given here.

Columns and labels:
[1] = system: HDM specific T-cell lines from HDM allergic donors; assay: T cell reactivity of protein: IL-5/IFNg FluoroSPOT or 72 h T cell proliferation in HDM specific T-cell lines (Example 2); type: cell-based, human; conditions: responding donors of tested HDM allergic donors
Excerpt: PBMCs from European HDM-allergic individuals were recruited in the Copenhagen region (defined by clinical history of allergy to house dust mite and specific IgE to group 1 and group 2 major allergens from Der p and/or Der f and with measured specific IgE (CAP) >0.7 kU/L towards Der p/f 1 or Der p/f 2. In addition, PBMCs from 10 US HDM-allergic individuals were recruited in San Diego (defined by Der p extract IgE titers greater than 0.35 kUA/L). PBMCs were isolated from whole blood by density gradient centrifugation according to manufacturers' instructions (Ficoll-Hypaque, Amersham Biosciences, Uppsala, Sweden). Der p- and Der f-specific extract IgE titers were determined using the ImmunoCAP system (Thermo Fisher, Uppsala, Sweden). In a separate series of experiments, pooled plasma from 10 European and 10 American HDM atopic individuals from the San Diego region, respectively, was utilized to run 2D immunoblots to elucidate IgE and IgG reactivity towards the proteins, which had at least one peptide with positive T cell response.
T cells reactivity was determined by establishment of HDM specific T-cell lines according to standard methods. In short, PMBCs from HDM allergic donors were cultured for 2-3 weeks in the presence of house dust mite allergen extract. The responses to proteins having SEQ ID NOs 1-44 were assessed by IL-5/IFNg FluoroSPOT (Mabtech FS-0108-10) according manufacturer protocol, (after 2 weeks) or proliferation in a standard 72 h T cell proliferation assay, as described in Henmar H et al., Clin Exp Immunol 2008; 153(3):316-23. (after 3 weeks). In addition these established T cell lines were used for further characterization and epitope mapping.

[2] = system: basophils in whole blood from HDM allergic donors; assay: Basophil Activation Test (BAT); type: cell-based, human; conditions: responding donors of tested HDM allergic donors; whole blood stimulated 1 h
Outline: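 Whole blood from HDM-allergic donors (n=14) was stimulated for 1 h with test proteins across a concentration range, e.g. 1, 10, 100 or 1000 ng/ml. Basophil surface activation markers were measured by flow cytometry, with Der p 1 and Der p 2 tested at the same concentrations as controls.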

Row | Molecule | % T cell responding donors to protein [1] | % responding donors in BAT Assay [2]
1 | 38 (protein, listed as Dermatophagoides farinae) QSRDRNDKPYRIVCYWGTWAFYRPASGKFQAENVNPNLCTHIMYGFAKLQNNKIALYDPDLDDGDEDWNSGLQWGHGMIRRMVNLRTYNPHLTTMISLGGWNEGSDKYSIMVRDPASRKIFIQSVLHLLAEFDLDGLDFDWEYPAMQASGDSDRKPGRAEDKEDFVTLLRELHEAFQPHGYVLSSAVSAGKPTIDRAYNIPEVSKYLDFINLMSYDYHGGWESHTGHNAPLNSYKNANELDKEFTVTYSVEYWLNHGVDPKKLVLGIPLYGRTFTLAGSEHGIGAPTIGKGGESGTITRTIGMLGYNEICTMIKQGWQLYRDEIERIPYAVHANQWIGYDDRESVNEKLNLLMAKHLGGAMVWSIDTDDFVGNCVGVKYPLLRSISKKLNNVDGPDPDIKRYHYHTSTAKPHTDGTTSTHHDHKTTTTKHHKTTQPHHKTTQPHHTQTITTTTERPHGKFQCHQAGFFADPENPRKFHQCVDFGGHLKDYEFMCGEGTHYDEKLHICVR | 11 of 27 | 0 of 8
2 | 29 (protein, listed as Dermatophagoides pteronyssinus) MVKIGINGFGRIGRLVLRAAIKKGVEVAAINDPFLDVKYMVYMFKFDSTHGRYQGEVKEEGGLLVVDGQKIQVFQERNPAEIPWGKVGADYVVESTGVFTTIEKAKAHLAGGAKKVIISAPSADAPMYVMGVNHDKYDPKQQIISNASCTTNCLAPLAKVINDKFGIENGLMTTVHAITATQKTVDGPSGKLWRDGRGAGQNIIPASTGAAKAVGKVIPELNGKLTGMALRVPVPDVSVVDLTVTLKNPASYDEIKAAVKAAAESDHWKGILEYTDEEVVSSDFISDTHSSIFDAKAGIALTPTFVKLIAWYDNEFGYSNRVVDLIKYVASK | 2 of 27 | 1 of 8*
3 | 40 (protein, listed as Dermatophagoides pteronyssinus) KSAPEGCFRAAVLDHVHQTDARHLSNTAKIIDLNFKVYEDAAALAKKQGADIIVFPENGLIYSILSREKADEFASDIPDAEVNACTLDSKFVYNRLACLAQKHQMFVVADLIDRKSCEELGINNVSDSCPADKKFLFNTAVLFDRQGKLLGRYHKMHLFGEISMNPPPKPELLVIDTELGRLGMQICFDMIFKTPGYLLAQENKFDTMLFPTWWFDESPMLSSSQYQMAWAFGNNVTLLASNIHRIEVGSRGSGIYVGPHRTLAAALYDDSVERLVLANVPIKPKETDQSACPLDSEIIEVPQQIPIPKSVKYHHQNLNLKDVTLLQLSSNESEVHLCHKGVCCQFEYRLAMKDQPQESWVDRVPLLANMLHYLTPEERYYLLIANRTRPGAYPWSEEFCAVVVCPSSRWNFGKMQKDCSKIGSNQELSSRFVHAKLRGKFSEDTAVYPSAVGSKNQLIYPENKWKFWKVNVPNEPEYFIELGAKDNSESRAMELGALVLYGRNYNRDPRYEQKALPIN | 15 of 27 | 0 of 8
4 | 13 (protein, listed as Dermatophagoides farinae) KKTKDCDVEKPIRECLKNGLLRYSDGQKINQFPDSIEDLNRACEELKKSETCARNFIDTCTETSYEKRSLDSLLDGIQRVLKRLCRSQSKKEQLLQNVGCANSVVQDTKLCLKNYRMLVFAANKLNDKSKIMRILCCKSRKVAPCIGEAMKSKGNAVCSAKNIDYFREMHQNIKAEMTAVVCSDFERDQCENVEVPAITEAEYKDQNIFNPLRDLYKKVILA | 6 of 29 | 0 of 16
5 | 33 (protein, listed as Dermatophagoides pteronyssinus) IEQVHIALGSNETEIIVTWTEPHKHDDKTSDAVVYYGQAKSSFDQKVKAISEYFKDDKTKYTTYRALLTGLLPGTEYHYRIQMDDLESSIFEFKTLKTGEENWLPRFAIYGDLGYVNEQSLPYLKKDVEQNLFDVIFHIGDFAYDLNDEHGKVGHHFMRSIEPVASKVAYMTCPGNHERHDNFSHYDSRFSMIGDRSQPIHSDKLNKRLNNHFHSMTIGPATIILFSTEYYYYTKYGWQQIEHQYRWLEQELKRANENRQKHPWIIVMGHRPLYCLKMGDDSCDHQTMERKEIRQGIRMHDEGERQYGLEDLFFKYGVDIQFYGHEHFYARLFPIYKYKMYNGTKSKNPYDHPGAPIHITTGSAGNKELHPEFNHLNDWVAEHFYDYGYTRLMFEDKYRIRLQQISDDQHGKVLDEIEIVKSSPQPHWMNVEHH | 10 of 27 | 1 of 8*
6 | 37 (protein, listed as Dermatophagoides pteronyssinus) DTPANCTYEDIKGLWLFEETEPIKDRWEKCPEHQQQREKYSKKIFIRLDFPNVAVDKFGNIGEWTMIYNQGFEVKINYRKYFAFSAYERKSENNVLSYCHKTQPGWSHDVLGNNWACYVGHKVNNWNDDDVSKTTTVGAEKFPVKQHSERELYLQNINVEHILSQKHIDHLNSQQKSWKAIVYPDLQSKSIEHLIQMAGGRKSRIINRPKPLRATEQQKQLARSLPESFDWRNLNGIDYVSPVRDQGKCGSCYTFASMAMLESRIRIQTNNTFKPIFSTQEVVDCSEYSQGCDGGFSYLIAGKYAQDFGVIDESCYPYKGVTGKCQNQQNFNQTNEKCKQRTYTIDYKYVGGYFGACNEEAMQIELVQNGPIAVGFEVYGDFFGYSEGIYSHQPSNESNDQHQQIKAEFNPFEMTNHAVLIVGYGKDKKTGEKYWIVKNSWGKQWGMDGYFWMRRGTDECAIESLAMAATPIPN | 4 of 27 | 0 of 8
7 | 6 (protein, listed as Dermatophagoides pteronyssinus) MVKAVVVLKGDPNVSGTIFFEQQDNGPVKVTGSVQGLKPGLHGFHVHEFGDNTNGCTSAGAHYNPLNKTHGAPNDEERHVGDLGNIEANDKGVANVVIEDSLISLTGEKSIVGRSLVVHADPDDLGRGGHELSKTTGNAGGRLVCGVIGVTK | 0 of 27 | 1 of 8*
8 | 3 (protein, listed as Dermatophagoides pteronyssinus) MAIDGKYQMESSEHFEEFVKEMGLDVDMTNVDLSKTSTMEICKDGDVYHIKSETAGIAHEIKFKVGEEFEDDMNGHKFKNVVTMECDNKMVQKKTSADGGKVVNVVREFTDAGCTVKSTYNTVTWTRVYKRM | 1 of 29 | 0 of 16
9 | 25 (protein, listed as Dermatophagoides pteronyssinus) MSSSSGKKYDFSGKVALVTGSSSGIGAAIALQFAQYGAQVTITGRDAAALESVAKRIEAESGHQPLQIVGNLLDQSLPAKLIDGTISKYGRLDFLVNNAGFSTQHRDIHDEKLMEAFDQVYGLNVRAVVQLSQLAATHLEKSKGNIINISSNLSMMPVHIIYSSSKAALDMITKTMAMEFGKKGVRVNSINPGPVATQFMRSLGMPVTFLKENEEFVKELTLLKFVAQPVEIANLASFLASDDARNMTGSIVVNDTGSLLAPRVDFKKLDEIKKK | 3 of 26 | 1 of 8*
10 | 31 (protein, listed as Dermatophagoides pteronyssinus) MAKFNYLPVDVQEELRNTANAIVSVGKGILAADESTGTIGKRFADINVENVEQNRQAYRQLLFYSEGIEQYISGVILFDETVYQKDDKGVPFPELLKKKGIIPGIKVDTGVVTLQGTNGESTTQGLDNLTKRCQEYYNQGCRFAKWRCVLKIGQDEPSSLAIVENANVLARYASCCQQARIVPIVEPEILPDGDHNLERCQKVTETVLAAVYKALNDHHVYLEGTLLKPNMVTPGQSCPQKASPQEVAQATVTALQRTVPAAVPGIVFLSGGQSEEEASVNLNAINQYQGKKPWALSFSYGRALQASALRAWQGKPENIGAGQKELLQRAKANVLAHKGQYVAGSIPSLASAKSNFVAQHKY | 6 of 27 | 0 of 8
